Assay results as given in US20240052059A1 (PUBLIC UNIVERSITY CORPORATION NARA MEDICAL UNIVERSITY, published 2024).

Target: FIX remaining in commercially-available FIX-deficient human plasma (trace amount) (human, UniProt P00740 47-461)
Experiment: cell-based or functional assay

FIX remaining in commercially-available FIX-deficient human plasma (trace amount), sequence (P00740 47-461 limits assumed): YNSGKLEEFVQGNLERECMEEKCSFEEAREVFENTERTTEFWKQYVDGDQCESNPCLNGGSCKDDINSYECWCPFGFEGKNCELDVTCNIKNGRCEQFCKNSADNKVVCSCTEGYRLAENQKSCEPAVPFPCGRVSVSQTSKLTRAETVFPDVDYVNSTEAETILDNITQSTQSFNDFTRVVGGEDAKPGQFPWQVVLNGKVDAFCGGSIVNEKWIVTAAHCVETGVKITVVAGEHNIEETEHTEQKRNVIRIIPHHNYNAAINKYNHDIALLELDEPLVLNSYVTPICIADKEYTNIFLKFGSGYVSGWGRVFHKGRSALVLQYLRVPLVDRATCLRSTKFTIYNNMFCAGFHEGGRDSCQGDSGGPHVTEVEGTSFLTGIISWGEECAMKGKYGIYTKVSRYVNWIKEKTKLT

APTT shortening ratio with 100 ug/mL ACE910 in FIX-deficient human plasma without FIX formulation, after further addition of anti-FIX-Gla antibody (150 ug/mL): -3%
B1: ACE910 (Emicizumab), anti-FIXa/FX bispecific antibody (Q499-z121/J327-z119/L404-k) (bispecific antibody, human IgG4 S228P, kappa)
heavy 1: QVQLVESGGGLVQPGGSLRLSCAASGFTFSYYDIQWVRQAPGKGLEWVSSISPSGQSTYYRREVKGRFTISRDNSKNTLYLQMNSLRAEDTAVYYCARRTGREYGGGWYFDYWGQGTLVTVSSASTKGPSVFPLAPCSRSTSESTAALGCLVKDYFPEPVTVSWNSGALTSGVHTFPAVLQSSGLYSLSSVVTVPSSSLGTQTYTCNVDHKPSNTKVDKRVESKYGPPCPPCPAPEFLGGPSVFLFPPKPKDTLMISRTPEVTCVVVDVSQEDPEVQFNWYVDGVEVHNAKTKPREEQYNSTYRVVSVLTVLHQDWLNGKEYKCKVSNKGLPSSIEKTISKAKGQPREPQVYTLPPSQKEMTKNQVSLTCLVKGFYPSDIAVEWESNGQPENNYKTTPPVLDSDGSFFLYSKLTVDKSRWQEGNVFSCSVMHEALHNRYTQKSLSLSP
heavy 2: QVQLVQSGSELKKPGASVKVSCKASGYTFTDNNMDWVRQAPGQGLEWMGDINTRSGGSIYNEEFQDRVIMTVDKSTDTAYMELSSLRSEDTATYHCARRKSYGYYLDEWGEGTLVTVSSASTKGPSVFPLAPCSRSTSESTAALGCLVKDYFPEPVTVSWNSGALTSGVHTFPAVLQSSGLYSLSSVVTVPSSSLGTQTYTCNVDHKPSNTKVDKRVESKYGPPCPPCPAPEFLGGPSVFLFPPKPKDTLMISRTPEVTCVVVDVSQEDPEVQFNWYVDGVEVHNAKTKPREEQYNSTYRVVSVLTVLHQDWLNGKEYKCKVSNKGLPSSIEKTISKAKGQPREPQVYTLPPSQEEMTKNQVSLTCLVKGFYPSDIAVEWESNGQPENNYKTTPPVLDSDGSFFLYSKLTVDKSRWQEGNVFSCSVMHEALHNHYTQESLSLSP
light: DIQMTQSPSSLSASVGDRVTITCKASRNIERQLAWYQQKPGQAPELLIYQASRKESGVPDRFSGSRYGTDFTLTISSLQPEDIATYYCQQYSDPPLTFGGGTKVEIKRTVAAPSVFIFPPSDEQLKSGTASVVCLLNNFYPREAKVQWKVDNALQSGNSQESVTEQDSKDSTYSLSSTLTLSKADYEKHKVYACEVTHQGLSSPVTKSFNRGEC
